# T1: β-catenin (human (endogenous in HCT116), UniProt P35222 1-781)
# T1 sequence (looked up): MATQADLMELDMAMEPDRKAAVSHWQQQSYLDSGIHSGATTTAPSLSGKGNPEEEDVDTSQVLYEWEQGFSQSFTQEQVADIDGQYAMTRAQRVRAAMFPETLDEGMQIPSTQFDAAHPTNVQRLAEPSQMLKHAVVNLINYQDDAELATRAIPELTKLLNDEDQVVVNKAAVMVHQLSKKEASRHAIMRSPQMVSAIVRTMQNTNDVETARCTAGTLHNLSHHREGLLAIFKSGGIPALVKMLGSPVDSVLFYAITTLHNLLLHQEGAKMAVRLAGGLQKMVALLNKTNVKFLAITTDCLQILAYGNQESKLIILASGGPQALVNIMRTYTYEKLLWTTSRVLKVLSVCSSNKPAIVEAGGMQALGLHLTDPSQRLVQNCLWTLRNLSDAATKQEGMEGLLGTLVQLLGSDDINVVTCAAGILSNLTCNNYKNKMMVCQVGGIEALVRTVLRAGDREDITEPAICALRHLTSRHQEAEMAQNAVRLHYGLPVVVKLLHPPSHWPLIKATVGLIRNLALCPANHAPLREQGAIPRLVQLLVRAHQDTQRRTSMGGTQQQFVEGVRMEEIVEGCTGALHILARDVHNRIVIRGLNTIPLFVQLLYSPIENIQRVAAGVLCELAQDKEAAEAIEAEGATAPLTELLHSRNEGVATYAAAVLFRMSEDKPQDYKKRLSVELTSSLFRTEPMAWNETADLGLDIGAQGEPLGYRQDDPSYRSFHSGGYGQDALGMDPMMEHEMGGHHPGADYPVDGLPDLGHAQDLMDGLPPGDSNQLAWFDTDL
# Target: T1, β-catenin
# Experiment: cell-based or functional assay
binder,measurement,value
JCV T-Antigen (natural protein) MDKVLNREESMELMDLLGLDRSAWGNIPVMRKAYLKKCKELHPDKGGDEDKMKRMNFLYKKMEQGVKVAHQPDFGTWNSSEVPTYGTDEWESWWNTFNEKWDEDLFCHEEMFASDDENTGSQHSTPPKKKKKVEDPKDFPVDLHAFLSQAVFSNRTVASFAVYTTKEKAQILYKKLMEKYSVTFISRHGFGGHNILFFLTPHRHRVSAINNYCQKLCTFSFLICKGVNKEYLFYSALCRQPYAVVEESIQGGLKEHDFNPEEPEETKQVSWKLVTQYALETKCEDVFLLMGMYLDFQENPQQCKKCEKKDQPNHFNHHEKHYYNAQIFADSKNQKSICQQAVDTVAAKQRVDSIHMTREEMLVERFNFLLDKMDLIFGAHGNAVLEQYMAGVAWIHCLLPQMDTVIYDFLKCIVLNIPKKRYWLFKGPIDSGKTTLAAALLDLCGGKSLNVNMPLERLNFELGVGIDQFMVVFEDVKGTGAESRDLPSGHGISNLDCLRDYLDGSVKVNLERKHQNKRTQVFPPGIVTMNEYSVPRTLQARFVRQIDFRPKAYLRKSLSCSEYLLEKRILQSGMTLLLLLIWFRPVADFAAAIHERIVQWKERLDLEISMYTFSTMKANVGMGRPILDFPREEDSEAEDSGHGSSTESQSQCFSQVSEASGADTQENCTFHICKGFQCFKKPKTPPPK,"Cyclin D1 promoter luciferase activity in HCT116 cells co-transfected with T-Antigen and β-catenin, over empty vector controls",11.7 fold
same,"TOPflash (TCF-dependent luciferase reporter) activity in HCT116 cells co-transfected with T-Antigen and exogenous β-catenin, 24 hours post-transfection, normalized to FOPflash",113 fold
same,"c-Myc promoter luciferase activity in HCT116 cells co-transfected with T-Antigen and β-catenin, over empty vector controls",6.1 fold
